Test results reported in FireProtDB (doi:10.1002/pro.5560041207).

B1: Thioredoxin, P08058 (parent)
chain: MSTVPVTDATFDTEVRKSDVPVVVDFWAEWCGPCRQIGPALEELSKEYAGKVKIVKVNVDENPESPAMLGVRGIPALFLFKNGQVVSNKVGAAPKAALATWIASAL

Variants of: B1
Settings: Cereibacter sphaeroides, pH 7.4, 23 °C, Urea, Fluorescence, whole UniProt chain shown

MSTVPVTDATFDTEVRKSDVPVVVDYWAEWCGPCRQIGPALEELSKEYAGKVKIVKVNVDENPESPAMLGVRGIPALFLFKNGQVVSNKVGAAPKAALATWIASAL
unfolding free energy (Potassium phosphate 20mM): 7.89 kcal/mol

MSTVPVTDATFDTEVRKSDVPVVVDIWAEWCGPCRQIGPALEELSKEYAGKVKIVKVNVDENPESPAMLGVRGIPALFLFKNGQVVSNKVGAAPKAALATWIASAL
unfolding free energy (Potassium phosphate 20mM): 4.3 kcal/mol

MSTVPVTDATFDTEVRKSDVPVVVDVWAEWCGPCRQIGPALEELSKEYAGKVKIVKVNVDENPESPAMLGVRGIPALFLFKNGQVVSNKVGAAPKAALATWIASAL
ddG of mutation (higher = less stable) (Potassium phosphate 20 mM): 4.8 kcal/mol | unfolding free energy (Potassium phosphate 20 mM): 3.4 kcal/mol | unfolding free energy (Potassium phosphate 20mM): 3.35 kcal/mol

MSTVPVTDATFDTEVRKSDVPVVVDLWAEWCGPCRQIGPALEELSKEYAGKVKIVKVNVDENPESPAMLGVRGIPALFLFKNGQVVSNKVGAAPKAALATWIASAL
ddG of mutation (higher = less stable) (Potassium phosphate 20 mM): 3.4 kcal/mol | unfolding free energy (Potassium phosphate 20 mM): 4.8 kcal/mol | unfolding free energy (Potassium phosphate 20mM): 4.78 kcal/mol
